Primed or numbered codes have the meaning given here. Where no end group is shown, it is not given here. [ ]: non-standard residue; d: D form. Fc(4) = non-antigen-binding fragment of an antibody (from proteolytic digestion of a whole antibody); Fc = immunoglobulin Fc domain fused to the peptide (peptibody); Fc(7) = Fc domain, peptide fused N- or C-terminal to it

In this test the target is T1, human Ang-2 (human, UniProt O15123).
T1 chain: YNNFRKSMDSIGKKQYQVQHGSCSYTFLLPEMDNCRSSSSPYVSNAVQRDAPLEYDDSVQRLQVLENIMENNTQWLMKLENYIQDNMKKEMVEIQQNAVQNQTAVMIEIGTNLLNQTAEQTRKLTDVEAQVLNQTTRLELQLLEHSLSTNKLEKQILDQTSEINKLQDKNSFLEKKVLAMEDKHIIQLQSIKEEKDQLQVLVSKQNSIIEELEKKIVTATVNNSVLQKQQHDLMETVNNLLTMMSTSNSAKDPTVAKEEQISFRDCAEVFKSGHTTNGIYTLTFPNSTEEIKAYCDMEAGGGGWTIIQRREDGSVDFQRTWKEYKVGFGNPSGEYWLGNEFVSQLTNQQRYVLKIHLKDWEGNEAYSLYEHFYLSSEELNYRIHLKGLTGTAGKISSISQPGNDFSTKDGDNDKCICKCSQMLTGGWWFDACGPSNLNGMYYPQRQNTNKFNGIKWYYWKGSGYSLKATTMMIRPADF
The experiment in a line: competition ELISA vs Tie-2.

Molecule M[Fc(7)]GGGGGAQQVIGRPCEWDPWTCEHLEGLLE (not fully specified (bridges); cysteine pairing not given here) [Con4-20 (C)] came in with a half-inhibitory concentration (IC50) of 0.48 nM.
In turn, M[Fc(4)]GGGGGAQTTIGSMCQWDPWTCEHMQGGLE (not fully specified (bridges); cysteine pairing not given here) [Con4-C4 (C)] gave an IC50 of 9.8 nM.
In turn, M[Fc]GGGGGAQKSGQVECNWDPWTCEHMPRNLE (not fully specified; cysteine pairing not given here) [Con4-36 (C)] returned an IC50 of 0.28 nM.
In turn, M[Fc]GGGGGAQPMNQVECDWDPWTCEHMPRSLE (not fully specified; cysteine pairing not given here) [Con4-33 (C)] displayed a half-maximal inhibitory concentration (IC50) of 0.52 nM.
In the case of M[Fc]GGGGGAQVKTQEHCDWDPWTCEHMREWLE (not fully specified; cysteine pairing not given here) [Con4-34 (C)], the half-maximal inhibitory concentration (IC50) came to 0.28 nM.
For M[Fc]GGGGGAQWYEQDACEWDPWTCEHMAEVLE (not fully specified; cysteine pairing not given here) [Con4-4 (C)], the IC50 is 0.12 nM. This IC50 is about 2.3-fold lower than that of the molecule before.
Molecule M[Fc(4)]GGGGGAQNVRQEKCEWDPWTCEHMPVRLE (not fully specified; cysteine pairing not given here) [Con4-41 (C)] came in with an IC50 of 0.26 nM.
For M[Fc(7)]GGGGGAQTWPQDKCEWDPWTCRLLQGWLE (not fully specified (bridges); cysteine pairing not given here) [AC1-Con4 (C)] the value was greater than 1000 nM; for M[Fc(7)]GGGGGAQQGMKMFCEWDPWTCAHIVYRLE (not fully specified (bridges); cysteine pairing not given here) [Con4-11 (C)], 9.7 nM.
For M[Fc(7)]GGGGGAQDKILEECEWDPWTCRLLQGWLE (not fully specified (bridges); cysteine pairing not given here) [AC3-Con4 (C)] the value was greater than 1000 nM; for M[Fc(7)]GGGGGAQRTTQEKCEWDPWTCEHMESQLE (not fully specified (bridges); cysteine pairing not given here) [Con4-29 (C)], 0.41 nM.
Regarding M[Fc(7)]GGGGGAQVVQVGMCQWDPWTCKHMRLQLE (not fully specified (bridges); cysteine pairing not given here) [Con4-19 (C)], the IC50 stood at 5.76 nM.
Take M[Fc(4)]GGGGGAQWAAQEECEWDPWTCEHMGRMLE (not fully specified; cysteine pairing not given here) [Con4-49 (C)]: the IC50 was 0.19 nM.
The figure for M[Fc(7)]GGGGGAQVLGGQGCQWDPWTCSHLEDGLE (not fully specified (bridges); cysteine pairing not given here) [Con4-1 (C)] is 2.47 nM; for M[Fc]GGGGGAQPRLQEECVWDPWTCEHMPLRLE (not fully specified; cysteine pairing not given here) [Con4-38 (C)] it is 0.4 nM.
The figure for M[Fc(7)]GGGGGAQTWPQDKCEWDPWTCEHMGSTLE (not fully specified (bridges); cysteine pairing not given here) [Con4-27 (C)] is 0.22 nM; for M[Fc(4)]GGGGGAQAATQEECEWDPWTCEHMPRSLE (not fully specified (bridges); cysteine pairing not given here) [Con4-C5 (C)] it is 0.16 nM; for M[Fc(4)]GGGGGAQSTIGDMCEWDPWTCAHMQVDLE (not fully specified; cysteine pairing not given here) [Con4-8 (C)] it is 1.2 nM.
As for M[Fc(4)]GGGGGAQGHSQEECGWDPWTCEHMGTSLE (not fully specified; cysteine pairing not given here) [Con4-48 (C)], the IC50 amounted to 0.26 nM.
The figure for M[Fc]GGGGGAQVPRQKDCEWDPWTCEHMYVGLE (not fully specified; cysteine pairing not given here) [Con4-35 (C)] is 0.18 nM.
For M[Fc(7)]GGGGGAQQWSWPPCEWDPWTCQTVWPSLE (not fully specified (bridges); cysteine pairing not given here) [Con4-15 (C)] the value was 15 nM; for M[Fc(7)]GGGGGAQDKILEECQWDPWTCQFFYGALE (not fully specified (bridges); cysteine pairing not given here) [Con4-3 (C)], 282 nM.
For M[Fc(7)]GGGGGAQTQLVSLCEWDPWTCRLLDGWLE (not fully specified (bridges); cysteine pairing not given here) [Con4-12 (C)], the IC50 is greater than 1000 nM.
M[Fc(7)]GGGGGAQVWRSQVCQWDPWTCNLGGDWLE (not fully specified (bridges); cysteine pairing not given here) [Con4-22 (C)] returned an IC50 of 150 nM.
For M[Fc(7)]GGGGGAQAWGQEGCDWDPWTCEHMLPMLE (not fully specified (bridges); cysteine pairing not given here) [Con4-28 (C)] the value was 0.3 nM.
Regarding M[Fc]GGGGGAQKSTQDDCDWDPWTCEHMVGPLE (not fully specified; cysteine pairing not given here) [Con4-32 (C)], the IC50 was 0.75 nM.
For the molecule M[Fc(4)]GGGGGAQHGQNMECEWDPWTCEHMFRYLE (not fully specified; cysteine pairing not given here) [Con4-50 (C)], the IC50 was found to be 0.38 nM.
As for M[Fc(7)]GGGGGAQWVNEVVCEWDPWTCNHWDTPLE (not fully specified (bridges); cysteine pairing not given here) [Con4-18 (C)], the IC50 was 4.8 nM.
M[Fc(7)]GGGGGAQAATQEECEWDPWTCRLLQGWLE (not fully specified (bridges); cysteine pairing not given here) [AC5-Con4 (C)] had an IC50 greater than 1000 nM.
The figure for M[Fc(4)]GGGGGAQGTSPSFCQWDPWTCSHMVQGLE (not fully specified; cysteine pairing not given here) [Con4-9 (C)] is 20.1 nM; for M[Fc(4)]GGGGGAQLWQLAVCQWDPQTCDHMGALLE (not fully specified; cysteine pairing not given here) [Con4-7 (C)] it is greater than 1000 nM.
On to M[Fc(4)]GGGGGAQWPQTEGCQWDPWTCRLLHGWLE (not fully specified; cysteine pairing not given here) [Con4-6 (C)], for which the IC50 is greater than 1000 nM.
Turning to M[Fc(7)]GGGGGAQPDTRQGCQWDPWTCRLYGMWLE (not fully specified (bridges); cysteine pairing not given here) [Con4-24 (C)], the IC50 is greater than 1000 nM.
For M[Fc(4)]GGGGGAQATFARQCQWDPWTCALGGNWLE (not fully specified; cysteine pairing not given here) [Con4-5 (C)], the IC50 was greater than 1000 nM.
For M[Fc(4)]GGGGGAQTTIGSMCQWDPWTCAHMQGGLE (not fully specified (bridges); cysteine pairing not given here) [Con4-C2 (C)], the IC50 was 3.75 nM.

These data come from patent US7205275 (dated 2007).
